According to PMC6208348 (Nature Communications, 2018):
Non-standard residues stand in square brackets, D forms with d. No end group written: not given here. pY = N[C@@H](Cc1ccc(OP(=O)(O)O)cc1)C(=O)O

Molecular target: GST-fused Grb2 SH2 domain (human, UniProt P62993 60-152)
Experiment: peptide or protein array
Conditions: both partners purified

Sequence of GST-fused Grb2 SH2 domain (P62993 60-152): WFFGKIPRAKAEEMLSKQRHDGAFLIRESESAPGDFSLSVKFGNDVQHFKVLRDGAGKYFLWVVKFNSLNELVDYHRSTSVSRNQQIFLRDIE

Binder: DPS[pY]VNVQNL [Shc1 pTyr317 peptide (DPSpYVNVQNL) on the permutation array]
- binding result: binds
